Results from publication PMC8516096.

Tests used:
Details in all cases: Holoenzyme reconstitution: 200 mM Tris-HCl pH 8.0, 30 mM KCl, 10 mM MgCl2, 50 mM NaCl, 1 mM DTT, 1 mM EDTA, BSA 20 ug/ml, 30 C 45 min; DNA binding: 50 mM …
[1] = target: T1, RNAP core enzyme (E, alpha2 beta beta' omega);RpoS (sigmaS, sigma38);Crl (Escherichia coli;Salmonella enterica serovar Typhimurium ATCC 14028?;Salmonella enterica serovar Typhimurium ATCC 14028?) (UniProt P0A7Z4+P0A8V2+P0A8T7+P0A800+D0ZVL4+Q7CR52); experiment: competition EMSA with anti-RpoS immunoblot
[2] = target: RNAP core enzyme (E, alpha2 beta beta' omega) (Escherichia coli) (UniProt P0A7Z4+P0A8V2+P0A8T7+P0A800); experiment: EMSA
[3] = target: RNAP core enzyme (E, alpha2 beta beta' omega);RpoD (sigmaD, sigma70) (Escherichia coli;Salmonella enterica serovar Typhimurium ATCC 14028?) (UniProt P0A7Z4+P0A8V2+P0A8T7+P0A800+P0A2E3); experiment: EMSA
[4] = target: T2, RNAP core enzyme (E, alpha2 beta beta' omega);RpoS (sigmaS, sigma38) (Escherichia coli;Salmonella enterica serovar Typhimurium ATCC 14028?) (UniProt P0A7Z4+P0A8V2+P0A8T7+P0A800+D0ZVL4); experiment: EMSA
[5] = target: T1, RNAP core enzyme (E, alpha2 beta beta' omega);RpoS (sigmaS, sigma38);Crl (Escherichia coli;Salmonella enterica serovar Typhimurium ATCC 14028?;Salmonella enterica serovar Typhimurium ATCC 14028?); experiment: EMSA with anti-RpoS immunoblot
[6] = target: T2, RNAP core enzyme (E, alpha2 beta beta' omega);RpoS (sigmaS, sigma38) (Escherichia coli;Salmonella enterica serovar Typhimurium ATCC 14028?); experiment: EMSA with anti-RpoS immunoblot

Measured: binding

AGTACATATAGTTTCATCAGAAGATTAATCGATGGTGTTATCATTAGGAAGATAAATTTCTTCATATATAACCCAGTCGATGACTACAATTACTTTTTAATAAGATGGCGATGTAAAAACATCGTAACAGTTTATTTAATAAATAATTTTTCAAATTGTAAGTTTTTATGTC (double strand) [PssrA region]
binds: all assays above
